The values below come from US20190062438A1 (CSL, published 2019).

Like-named read-outs stand apart in the source and are kept apart here.

The target of assay [1] is T1, soluble Homo sapiens CD131 comprising a C-terminal 6xHis tag (human, UniProt P32927 17-438).
T1 construct: truncated after Ser438, C-terminal 6xHis; also called shCD131; shβc
T1 sequence: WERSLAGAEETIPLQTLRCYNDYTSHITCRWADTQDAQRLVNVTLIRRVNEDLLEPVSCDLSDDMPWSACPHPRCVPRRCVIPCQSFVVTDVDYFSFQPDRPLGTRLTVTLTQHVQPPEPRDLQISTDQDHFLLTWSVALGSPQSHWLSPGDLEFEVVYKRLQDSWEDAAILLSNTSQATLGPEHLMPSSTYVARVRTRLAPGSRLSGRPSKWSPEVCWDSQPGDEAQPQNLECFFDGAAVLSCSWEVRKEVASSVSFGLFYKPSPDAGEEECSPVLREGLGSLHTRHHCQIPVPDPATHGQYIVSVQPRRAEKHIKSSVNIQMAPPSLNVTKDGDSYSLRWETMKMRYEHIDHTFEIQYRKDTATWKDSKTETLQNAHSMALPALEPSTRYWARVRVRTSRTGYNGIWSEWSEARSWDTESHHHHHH
The assay can be described thus: SPR, Fab over captured shCD131. As for the experimental part: (§1) Binding kinetics were measured using SPR with a BIAcore™ A-100 instrument (GE Healthcare Life Sciences). An anti-C-terminal Hexa-His antibody (3H3) was immobilized on spots 1, 2, 4 and 5 of each flow cell of a CM-5 sensor chip (GE Healthcare Life Sciences) using amine-coupling chemistry (116). […] As shβc is a dimer, kinetics assays were performed with shβc captured on the sensor surface, and purified Fab injected as the analyte. Avidity effects were avoided by the use of Fab rather than whole IgG.
(§2) shCD131 was captured on spots 1 and 5 of each flow cell for 2 minutes at a concentration of 0.4 μg/ml. […] For some analysis purified Fab was injected over each flow cell for 3 minutes and dissociation was monitored for a further 10 minutes. Regeneration of the surface was performed after each cycle with a 40 second injection of 25 mM glycine, pH 2.0. The analysis was performed with Fabs at several concentrations between 100 and 0.31 nM, with each concentration analyzed twice and in random order. The analysis was performed at a flow rate of 30 μl/min in HBS-EP buffer (10 mM Hepes, 150 mM NaCl, 3 mM EDTA, 0.005% Tween 20, pH 7.4) at 37° C. Responses from spots 2 and 4 of each flow cell, (in which shβc was not captured, but otherwise treated identically), were subtracted from those of spots 1 and 5 respectively to produce reference subtracted data. Reference subtracted responses from a blank injection comprising buffer alone were subtracted from the resultant sensorgrams to produce double referenced data suitable for kinetic analysis. Double-referenced sensorgrams were fitted using non-linear regression to a model describing 1:1 kinetics, including a term for mass transport limitation. The Rₘₐₓ value was fitted locally to account for slight deviations in the level of sCD131 captured, with association rate (kₐ), dissociation rate (kd) and equilibrium dissociation constant (KD) fitted globally.

The target in assay [2] is T1, soluble Homo sapiens CD131 comprising a …. The experiment in a line: SPR, Fab over captured shCD131. As for the experimental part:
as §1, §2
This is another data set of the same source.

The target of assay [3] is T2, human CD131 (human, UniProt P32927 17-897).
T2 sequence: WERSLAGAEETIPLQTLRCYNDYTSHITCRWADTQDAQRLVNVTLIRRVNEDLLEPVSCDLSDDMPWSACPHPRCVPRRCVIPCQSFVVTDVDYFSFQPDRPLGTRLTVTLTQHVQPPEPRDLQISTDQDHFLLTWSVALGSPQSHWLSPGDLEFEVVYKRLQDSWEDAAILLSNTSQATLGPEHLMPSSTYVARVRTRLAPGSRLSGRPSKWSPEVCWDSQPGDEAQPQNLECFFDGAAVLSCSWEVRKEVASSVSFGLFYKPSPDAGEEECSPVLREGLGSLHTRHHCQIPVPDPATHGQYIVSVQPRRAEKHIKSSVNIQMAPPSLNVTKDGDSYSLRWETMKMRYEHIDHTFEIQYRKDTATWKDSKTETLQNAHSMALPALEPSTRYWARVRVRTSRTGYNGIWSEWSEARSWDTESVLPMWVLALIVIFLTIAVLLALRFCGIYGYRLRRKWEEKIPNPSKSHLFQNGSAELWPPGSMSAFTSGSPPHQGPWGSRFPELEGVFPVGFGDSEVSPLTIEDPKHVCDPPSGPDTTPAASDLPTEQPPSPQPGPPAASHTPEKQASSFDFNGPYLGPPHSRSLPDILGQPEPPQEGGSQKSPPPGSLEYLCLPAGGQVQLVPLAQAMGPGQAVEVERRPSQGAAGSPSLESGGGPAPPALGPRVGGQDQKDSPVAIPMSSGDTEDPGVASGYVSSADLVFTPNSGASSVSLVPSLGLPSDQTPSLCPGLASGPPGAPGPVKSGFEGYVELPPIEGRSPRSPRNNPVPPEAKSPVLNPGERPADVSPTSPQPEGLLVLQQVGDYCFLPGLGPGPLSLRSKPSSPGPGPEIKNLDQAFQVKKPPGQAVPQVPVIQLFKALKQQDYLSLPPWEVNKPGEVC
The experiment in a line: cell-based or functional assay.

Assay [4] addresses T2, human CD131. The experiment in a line: cell-based or functional assay. The source holds these as a separate data set.
In assay [5] the target is T2, human CD131. The experiment in a line: cell-based or functional assay. This is another data set of the same source.

B1: 9A2-VR24 Fab (Fab, V domains shown)
VH: EVQLLESGGGLVQPGGSLRLSCAASGFTFPWYRVHWVRQAPGKGLEWVSSIRSSGGFTYYADSVKGRFTISRDNSKNTLYLQMNSLRAEDTAVYYCARFYDSFFDIWGQGTMVTVSS
VL: DIQMTQSPSSVSASVGDRVTITCRASQGISSWLAWYQQKPGKAPKLLIYAASSLQSGVPSRFSGSGSGTDFTLTISSLQPEDFATYYCQQANSFPITFGQGTRLEIKR
notes: recombinant Fab
As for B1, in assay [1], binding was put at a Kd of 0.46 nM, the “fold decrease in dissociation rate (kd) compared to parental 9A2” value amounted to 87 fold, the “fold decrease in the dissociation rate (kd) compared to parental 9A2” value turned out to be 87 fold and the “fold higher affinity compared to parental 9A2” value was determined as 106 fold. Also, in assay [1], the koff was determined as 0.0011 s⁻¹ and the kon was determined as 2.3e+06 M⁻¹ s⁻¹. In addition, in assay [2], binding was characterised by a dissociation constant (Kd) of 0.46 nM, the koff turned out to be 0.0011 s⁻¹ and the kon came out at 2.3e+06 M⁻¹ s⁻¹.

B2: 9A2-VR24 (antibody, V domains shown)
VH: EVQLLESGGGLVQPGGSLRLSCAASGFTFPWYRVHWVRQAPGKGLEWVSSIRSSGGFTYYADSVKGRFTISRDNSKNTLYLQMNSLRAEDTAVYYCARFYDSFFDIWGQGTMVTVSS
VL: DIQMTQSPSSVSASVGDRVTITCRASQGISSWLAWYQQKPGKAPKLLIYAASSLQSGVPSRFSGSGSGTDFTLTISSLQPEDFATYYCQQANSFPITFGQGTRLEIKR
Turning to B2, the “fold potency improvement (GM-CSF) over parental 9A2” value in assay [3] is 182 fold. Moreover, in assay [4], the “IC50 GM-CSF, TF-1 proliferation” value came to 2.5 nM; the “IC50 IL-3, TF-1 proliferation” value came to 0.726 nM; the “IC50 IL-5, TF-1 proliferation” value was 23.5 nM; the “pStat5 IC50 GM-CSF, TF-1 bla reporter” value turned out to be 8.6 nM. In addition, the “IC50 GM-CSF, TF-1 proliferation” value in assay [5] is 2.5 nM.

B3: 9A2-VR39 (antibody, V domains shown)
VH: EVQLLESGGGLVQPGGSLRLSCAASGFTFSHYHMLWVRQAPGKGLEWVSSINGRGRVTYYADSVKGRFTISRDNSKNTLYLQMNSLRAEDTAVYYCARFYDSFFDIWGQGTMVTVSS
VL: DIQMTQSPSSVSASVGDRVTITCRASQGISSWLAWYQQKPGKAPKLLIYAASSLQSGVPSRFSGSGSGTDFTLTISSLQPEDFATYYCQQANSFPITFGQGTRLEIKR
B3: the “fold improvement in GM-CSF potency over parental 9A2” value in assay [3] is 518 fold. The “IC50 GM-CSF, TF-1 proliferation” value in assay [4] and in assay [5] was 0.88 nM in each case. The “pStat5 IC50 GM-CSF, TF-1 bla reporter” value in assay [4] came to 4.1 nM.

B4: 9A2-VR39 Fab (Fab, V domains shown)
VH: EVQLLESGGGLVQPGGSLRLSCAASGFTFSHYHMLWVRQAPGKGLEWVSSINGRGRVTYYADSVKGRFTISRDNSKNTLYLQMNSLRAEDTAVYYCARFYDSFFDIWGQGTMVTVSS
VL: DIQMTQSPSSVSASVGDRVTITCRASQGISSWLAWYQQKPGKAPKLLIYAASSLQSGVPSRFSGSGSGTDFTLTISSLQPEDFATYYCQQANSFPITFGQGTRLEIKR
notes: recombinant Fab
Consider B4, for which, in assay [1], binding was put at a Kd of 0.27 nM, the “fold improvement in binding affinity over parental 9A2” value is approximately 180 fold, the koff was found to be 0.00059 s⁻¹ and the kon came out at 3e+06 M⁻¹ s⁻¹. Moreover, in assay [2], binding was characterised by a dissociation constant (Kd) of 0.27 nM, the off-rate constant (koff) is 0.00059 s⁻¹ and the kon was determined as 3e+06 M⁻¹ s⁻¹.

B5: 9A2-VR36 Fab (Fab, V domains shown)
VH: EVQLLESGGGLVQPGGSLRLSCAASGFTFSHYHMLWVRQAPGKGLEWVSSIGGDKRQTYYADSVKGRFTISRDNSKNTLYLQMNSLRAEDTAVYYCARFYDSFFDIWGQGTMVTVSS
VL: DIQMTQSPSSVSASVGDRVTITCRASQGISSWLAWYQQKPGKAPKLLIYAASSLQSGVPSRFSGSGSGTDFTLTISSLQPEDFATYYCQQANSFPITFGQGTRLEIKR
notes: recombinant Fab
Regarding B5, the affinity in assay [1], expressed as Kd, was 0.3 nM.

B6: 9A2-VR41 Fab (Fab, V domains shown)
VH: EVQLLESGGGLVQPGGSLRLSCAASGFTFSHYHMLWVRQAPGKGLEWVSSINGKGWTTYYADSVKGRFTISRDNSKNTLYLQMNSLRAEDTAVYYCARFYDSFFDIWGQGTMVTVSS
VL: DIQMTQSPSSVSASVGDRVTITCRASQGISSWLAWYQQKPGKAPKLLIYAASSLQSGVPSRFSGSGSGTDFTLTISSLQPEDFATYYCQQANSFPITFGQGTRLEIKR
notes: recombinant Fab
Take B6: in assay [1], binding was characterised by a dissociation constant (Kd) of 0.46 nM, the koff was determined as 0.00076 s⁻¹ and the kon worked out at 1.7e+06 M⁻¹ s⁻¹.

B7: 9A2-VR35 Fab (Fab, V domains shown)
VH: EVQLLESGGGLVQPGGSLRLSCAASGFTFSHYHMLWVRQAPGKGLEWVSSINGFGRNTYYADSVKGRFTISRDNSKNTLYLQMNSLRAEDTAVYYCARFYDSFFDIWGQGTMVTVSS
VL: DIQMTQSPSSVSASVGDRVTITCRASQGISSWLAWYQQKPGKAPKLLIYAASSLQSGVPSRFSGSGSGTDFTLTISSLQPEDFATYYCQQANSFPITFGQGTRLEIKR
notes: recombinant Fab
As for B7, the Kd in assay [1] was determined as 0.34 nM.

B8: 9A2-VR40 Fab (Fab, V domains shown)
VH: EVQLLESGGGLVQPGGSLRLSCAASGFTFSHYHMLWVRQAPGKGLEWVSSINGYGIQTYYADSVKGRFTISRDNSKNTLYLQMNSLRAEDTAVYYCARFYDSFFDIWGQGTMVTVSS
VL: DIQMTQSPSSVSASVGDRVTITCRASQGISSWLAWYQQKPGKAPKLLIYAASSLQSGVPSRFSGSGSGTDFTLTISSLQPEDFATYYCQQANSFPITFGQGTRLEIKR
notes: recombinant Fab
In assay [1], B8 returned a Kd of 0.52 nM, a koff of 0.00066 s⁻¹ and a kon of 1.3e+06 M⁻¹ s⁻¹.

B9: 9A2-VR44 Fab (Fab, V domains shown)
VH: EVQLLESGGGLVQPGGSLRLSCAASGFTFSHYHMLWVRQAPGKGLEWVSSIRSSGGFTYYADSVKGRFTISRDNSKNTLYLQMNSLRAEDTAVYYCARFYDSHFDIWGQGTMVTVSS
VL: DIQMTQSPSSVSASVGDRVTITCRASQGISSWLAWYQQKPGKAPKLLIYAASSLQSGVPSRFSGSGSGTDFTLTISSLQPEDFATYYCQQANSFPITFGQGTRLEIKR
notes: recombinant Fab
Molecule B9 came in with a Kd in assay [1] of 5 nM.

B10: 9A2-VR42 Fab (Fab, V domains shown)
VH: EVQLLESGGGLVQPGGSLRLSCAASGFTFSHYHMLWVRQAPGKGLEWVSSIGGDIRQTYYADSVKGRFTISRDNSKNTLYLQMNSLRAEDTAVYYCARFYDSFFDIWGQGTMVTVSS
VL: DIQMTQSPSSVSASVGDRVTITCRASQGISSWLAWYQQKPGKAPKLLIYAASSLQSGVPSRFSGSGSGTDFTLTISSLQPEDFATYYCQQANSFPITFGQGTRLEIKR
notes: recombinant Fab
On to B10, for which binding in assay [1] was characterised by a dissociation constant (Kd) of 0.38 nM.
